Source: paper PMC9645763

How the values were obtained:
[1] = biological target: mononucleosome (Xenopus laevis histone octamer on 147-bp 601 DNA) (Xenopus laevis); test: native gel or EMSA; 0.5 nM nucleosomes with PRC2-5m (2-fold serial dilution from 2 μM), 10 mM Tris 8.0, 50 mM NaCl, 10% glycerol, on ice 30 min; 4% native polyacrylamide gel, SYBR Gold
[2] = test system: PRC2-5m SUZ12 S583A (HEK293T) (human); test: EMSA; conditions: EMSA: 0.5 nM nucleosome, PRC2-5m 2-fold dilutions from 2 uM, 10 mM Tris 8.0, 50 mM NaCl, 10% glycerol, on ice 30 min; 4% native gel, 1x TGE, SYBR Gold

Substance | fold reduction of the nucleosome binding affinity against the WT complex [1] [fold] | binding signal (fold higher Kd than WT) [2]
PRC2-5m (EZH2–EED–SUZ12–RBBP4–AEBP2) containing the S583A mutation of SUZ12, expressed in HEK293T cells (from UniProt Q15910 1-746; O75530 1-441; Q15022 1-739; Q09028 1-425; Q6ZN18 1-295) (complex) | 2 | 
601 mononucleosome, 147 bp |  | 2
